Laboratory results reported in patent US20230049752A1 (University of California, published 2023).
Numbering of substitutions follows the chain as printed.

T1: mouse Claudin-6 (CLDN6) (mouse, UniProt Q9Z262 1-219)
T1 construct: whole, on cells; GFP fusion on engineered HEK293T cells; also called Mouse CLDN6; murine CLDN6
T1 sequence (looked up): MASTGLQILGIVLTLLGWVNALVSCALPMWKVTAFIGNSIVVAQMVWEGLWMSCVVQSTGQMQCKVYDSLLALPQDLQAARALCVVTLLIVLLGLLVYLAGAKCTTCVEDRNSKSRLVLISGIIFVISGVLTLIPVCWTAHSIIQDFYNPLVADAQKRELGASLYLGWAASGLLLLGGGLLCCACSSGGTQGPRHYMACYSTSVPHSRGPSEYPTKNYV

B1: AB S1 (antibody, V domains shown)
VH: EVQLLESGGGLVQPGGSMRLSCAASGFTFSNYWMNWVRQAPGKGLEWIAQIRLKSDNYATHYTDSVKGRFTISRDDSKRTVYLQMNSLRAEDTGTYYCSDGPPSGSWGQGTLLTVSS
VL: DIQMTQSPSSLSASVGDRVTITCRISENIYSYLAWYQQKPGKAPKLLVYNAKILVEGVPSRFSGSGSGTDFTLTISSLQPEDFGTYYCQHHYTVPWTFGQGTKLEIK
B2: AB S2 (antibody, V domains shown)
VH: B1 VH with T63A
VL: B1 VL
B3: AB S3 (antibody, V domains shown)
VH: B1 VH with A59V, T95I
VL: B1 VL
B4: AB S8 (antibody, V domains shown)
VH: QVQLVQSGAEVKKPGASVKMSCKASGYTFTTYTMHWVRQAPGQGLEWIGVINPSSGYTEYAQKFQGRVTLTADKSTSTVYMELSSLRSEDTAVYFCANGDYYVGYWGQGTLVTVSS
VL: DIQLTQSPSSLSASVGDRVTMTCTASSSVSSTYFHWYQQKPGKAPKLWIYSTSNLASGVPSRFSGSGSGTDYTLTISSMQPEDAATYYCHQYHRSPLTFGQGTKLEIK
B5: AB S12 (antibody, V domains shown)
VH: B4 VH with V50F
VL: B4 VL
B6: AB S11 (antibody, V domains shown)
VH: B4 VH with M34I, G104A
VL: B4 VL
B7: AB S9 (antibody, V domains shown)
VH: B4 VH with M34I, E59D
VL: B4 VL
B8: AB S10 (antibody, V domains shown)
VH: B4 VH with V50F, F95Y
VL: B4 VL
B9: AB4-6 (antibody, V domains shown)
VH: QVQLVQSGAEVKKPGASVKMSCKASGYTFTSYTMHWIRQAPGQGLEWIGYINPSSTYTHYAQKFQGRATLTADKSTSTAYMELSSLRSEDTAVYYCSRGELGGFAYWGQGTLVTVSS
VL: DVVMTQSPLSLPVTLGQPASISCRSSQSLVHSDGNTYLNWYQQRPGQSPRLLIYKVSNRFSGVPDRFSGSGSGTDFTLKISRVEAEDVGVYYCSQSTHVPYTFGQGTKLEIK
notes: humanized
B10: AB4-12 (antibody, V domains shown)
VH: B9 VH with L45Q, A61I, Q62K, Q65K, G66D
VL: B9 VL
notes: humanized
B11: AB4-11 (antibody, V domains shown)
VH: B9 VH with A61I, Q62K, Q65K, G66D
VL: B9 VL
notes: humanized
B12: AB4-10 (antibody, V domains shown)
VH: B9 VH with L45Q, A61I, Q62K, Q65K, G66D, K74T
VL: B9 VL
notes: humanized
B13: AB4-9 (antibody, V domains shown)
VH: B9 VH with A61I, Q62K, Q65K, G66D, K74T
VL: B9 VL
notes: humanized
B14: AB4-8 (antibody, V domains shown)
VH: QVQLVQSGAEVKKPGASVKVSCKASGYTFTSYTMHWVRQAPGQGLEWMGYINPSSTYTHYIKKFKDRVTMTADTSTSTVYMELSSLRSEDTAVYYCSRGELGGFAYWGQGTLVTVSS
VL: B9 VL
notes: humanized
B15: AB4-7 (antibody, V domains shown)
VH: B9 VH with L45Q
VL: B9 VL
notes: humanized

Biological target: human Claudin-6 (CLDN6) (human) (UniProt P56747)
Test: FACS, limiting dilution, OV90 cells

FACS signal at 0.32 nM | FACS signal at 1.6 nM | FACS signal at 8 nM | FACS signal at 40 nM | FACS signal at 200 nM | FACS signal at 1000 nM | Binder
475 | 668 | 2390 | 10500 | 43500 | – | B1
537 | 1510 | 3950 | 18100 | 53400 | – | B2
482 | 1040 | 4470 | 19500 | 63100 | – | B3
834 | 6410 | 26700 | 85900 | – | – | B4
638 | 1260 | 4630 | 14600 | 38300 | 83400 | B5
1460 | 4950 | 14700 | 44900 | 85600 | – | B6
2940 | 14000 | 48500 | – | – | – | B7
862 | 4690 | 16300 | 50400 | 87900 | – | B8

Biological target: human Claudin-6 (CLDN6) (human) (UniProt P56747)
Test: FACS, 0.3 ug Ab, 293T clone expressing human CLDN6 (2nd Ab only 768.07)

FACS fluorescence | Binder
10800 | B9
71100 | B10
37800 | B11
50800 | B12
37200 | B13
49300 | B14
19200 | B15

Biological target: human Claudin-6 (CLDN6) (human) (UniProt P56747)
Test: FACS, 1.5 ug Ab, ARK2 cells (2nd Ab only 1351.21)

FACS fluorescence | Binder
9840 | B9
24200 | B10
9170 | B11
20200 | B12
7790 | B13
7310 | B14
7560 | B15

Biological target: human Claudin-6 (CLDN6) (human) (UniProt P56747)
Test: FACS, limiting dilution, ARK2 cells

FACS signal at 0.32 nM | FACS signal at 1.6 nM | FACS signal at 8 nM | FACS signal at 40 nM | FACS signal at 200 nM | Binder
466 | 1380 | 3850 | 25800 | 62500 | B1
608 | 956 | 4840 | 21000 | 83400 | B2
372 | 933 | 4830 | 24600 | 83600 | B3
1640 | 10400 | 42600 | – | – | B4
1310 | 2080 | 8850 | 22900 | 62300 | B5
2130 | 6100 | 20200 | 59400 | – | B6
2990 | 16400 | 54600 | – | – | B7
2080 | 7690 | 27500 | 68200 | – | B8

Biological target: human Claudin-6 (CLDN6) (human) (UniProt P56747)
Test: FACS, 0.3 ug Ab, ARK2 cells (2nd Ab only 1351.21)

FACS fluorescence | Binder
3300 | B9
9690 | B10
6390 | B11
7210 | B12
3060 | B13
3120 | B14
2770 | B15

Biological target: human Claudin-6 (CLDN6) (human) (UniProt P56747)
Test: FACS, 1.5 ug Ab, 293T clone expressing human CLDN6 (2nd Ab only 768.07)

FACS fluorescence | Binder
29200 | B9
86200 | B10
61200 | B11
77200 | B12
56900 | B13
77600 | B14
33300 | B15

Biological target: T1, mouse Claudin-6 (CLDN6)
Test: FACS, 293T clone expressing mouse CLDN6, dose not stated (2nd Ab only 1061.72)
Procedure: Two doses (1.5 μg or 0.3 μg) of the humanized antibodies were tested for binding to either human CLDN6 or murine CLDN6 which proteins were expressed by engineered 293T clones.

FACS fluorescence | Binder
14200 | B9
1130 | B10
1230 | B11
2650 | B12
1780 | B13
4700 | B14
6640 | B15

Biological target: human Claudin-6 (CLDN6) (human) (UniProt P56747)
Test: FACS, limiting dilution, UMUC4 cells

FACS signal at 0.32 nM | FACS signal at 1.6 nM | FACS signal at 8 nM | FACS signal at 40 nM | FACS signal at 200 nM | FACS signal at 1000 nM | Binder
639 | 767 | 2330 | 6680 | 18700 | 41500 | B1
505 | 746 | 2270 | 6970 | 20000 | – | B2
533 | 647 | 1980 | 7780 | 20800 | 45300 | B3
720 | 6220 | 7200 | 16600 | 32900 | 40500 | B4
947 | 1910 | 5040 | 14800 | 37500 | – | B5
2350 | 2770 | 7000 | 12800 | 19900 | 33400 | B6
1910 | 11600 | 19200 | 23900 | 35600 | – | B7
874 | 2540 | 6850 | 9940 | 22200 | 35100 | B8
